In the assay the target is CD40 (UniProt P25942 21-193, limits assumed). Kind of assay: not stated (affinity given in the study drug description; no method).
Chain of CD40 (P25942 21-193 limits assumed): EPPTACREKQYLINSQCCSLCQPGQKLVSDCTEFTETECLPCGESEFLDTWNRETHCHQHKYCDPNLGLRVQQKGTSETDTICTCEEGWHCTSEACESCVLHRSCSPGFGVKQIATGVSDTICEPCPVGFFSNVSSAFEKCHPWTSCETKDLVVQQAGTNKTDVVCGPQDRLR

B1: KPL-404 (antibody, human IgG4 S228P, kappa, V domains shown)
VH: QVQLVQSGAEVKKPGASVKVSCKASGYTFTNYWMHWVRQAPGQRLEWIGYINPSNDYTKYNQKFKDRATLTADKSANTAYMELSSLRSEDTAVYYCARQGFPYWGQGTLVTVSS
VL: EIVLTQSPATLSLSPGERATLSCSASSSVSYMHWYQQKPGQAPRRWIYDTSKLASGVPARFSGSGSGTDYTLTISSLEPEDFAVYYCHQLSSDPFTFGGGTKVEIKR
notes: also called humanized anti-CD40 antibody; KPL-404 drug product
Take B1: the Kd is 7.2 nM.

These data come from patent US20260103532A1 (published 2026).
